Patent publication US20130171217A1, “ENZYMATIC PERACID GENERATION FOR USE IN SKIN CARE PRODUCTS” (E I DU PONT DE NEMOURS AND COMPANY, priority 2010, published 2013)
Blank lines part the entries; values can stand above or below the molecule they belong to.

Experiments:
[1] = Perhydrolase activity remaining bound to hair, ABTS assay; assay type: binding, human; details: 50 μg/mL
Procedure: Ten mg of human hair was submerged in 2 mL of a binding solution containing 50 μg/mL of the Thermotoga maritima perhydrolase targeted to hair via the hair binding peptide HC263 (C277S-HC263; SEQ ID NO: 288; also referred to herein as “HC1121”) in 50 mM pH 7.2 potassium phosphate buffer containing 5% of the test surfactant. The test surfactants were two nonionic surfactants: TWEEN®-20 (Sigma, St Louis, Mo.), and TRITON®-X 100 (Aldrich, St Louis, Mo.), and two ionic surfactants: CHEMBETAINE™ CAD (Cocamidopropyl betaine; Lubrizol, Wickliffe, Ohio) and RHODAPEX® ES-2K (sodium laurel ether sulfate; Rhodia Novecare, Cranbury, N.J.).
Hair was incubated in the binding solution at room temperature (˜22° C.) with gentle agitation for 30 minutes, at which time the solution was removed by aspiration and the hair rinsed with 1% TWEEN®-20 in 50 mM pH 7.2 potassium phosphate buffer. The hair was removed from the tube, blotted dry with paper towel, and transferred to a new set of tubes. The hair was rinsed once with 1% TWEEN®-20 in 50 mM pH 7.2 potassium phosphate buffer and then rinsed three times with 50 mM pH 7.2 potassium phosphate buffer. Perhydrolase activity remaining bound to the hair was determined by the ABTS assay.
The ABTS assay was performed as follows: hair samples treated as described above were transferred to new 2-mL microcentrifuge tubes (Eppendorf Protein LoBind; Eppendorf North America, Hauppauge, N.Y.) To each tube was added 480 μL of PAH buffer (50 mM potassium phosphate, pH 7.2), 14 μL of 39% hydrogen peroxide (Sigma 3410), and 6 μL triacetin (Sigma-Aldrich W200700). The perhydrolase reaction was allowed to proceed for 10 minutes at room temperature (˜22-25° C.). The reaction was stopped by diluting aliquots 10×, 100× and 1000× with 10 mM phosphoric acid. For detection 50 μL of 1 M acetic acid, 50 μL of 40 mg/mL potassium iodide, and 50 μL of 4 mM ABTS (2,2′-azino-bis(3-ethylbenzthiazoline-6-sulphonic acid; Sigma, St Louis, Mo.) were added to 50 μL of the above dilutions. Color was allowed to develop for 10 minutes and read in a spectrophotometer at 405 nm. Values from no-enzyme controls were subtracted to yield values attributable only to enzyme activity. A standard curve of OD 405 nm vs PAA concentration in ppm yielded a conversion factor of 8.75, such that an OD 405 nm of 1.0 corresponded to approximately 8.75 ppm PAA. This value was then multiplied by the appropriate dilution to arrive at the PAA concentration in the perhydrolase reaction.
The Thermotoga maritima perhydrolase targeted to hair via the hair binding peptide HC263 (C277S-HC263; SEQ ID NO: 288) was diluted to 50 μg/mL in a solution of 5% PEG-80 sorbitan laurate in 100 mM citrate-phosphate buffer adjusted to pH 4.9, pH 5.5, pH 6.0, or pH 7.0. Ten mg of human hair was added to 2 mL of the above formulations and incubated with gentle agitation for 5 minutes at room temperature to allow enzyme binding to hair. A no-enzyme control sample was included with each pH. After binding, the binding solution was removed by aspiration and the hair was washed with 2 mL of 1% TWEEN®-20 in 50 mM pH 7.2 potassium phosphate buffer. The hair was removed from the tube, blotted dry with paper towel, and transferred to a new set of tubes. The hair was rinsed once with 1% TWEEN®-20 in 50 mM pH 7.2 potassium phosphate buffer and then rinsed three time with 50 mM pH 7.2 potassium phosphate buffer. Perhydrolase activity remaining bound to the hair was determined by the ABTS assay. The results are given as ppm PAA produced at 10 minutes (after subtraction of the no-enzyme control values)
The Thermotoga maritima perhydrolase targeted to hair via the hair binding peptide HC263 (C277S-HC263; SEQ ID NO: 288) was diluted to 50 μg/mL in a solution of 5% PEG-80 sorbitan laurate in 100 mM citrate-phosphate buffer adjusted to pH 6.0. […]

[2] = Retention of perhydrolase on hair detected by hydrolase activity; assay type: binding
Procedure: For hair binding experiments brown hair tresses (International Hair Importers and Products, Glensdale N.Y.) were used. The hair was washed with 2% SLES, rinsed extensively with deionized water and air dried.
Around 20 mg of 1 cm brown hair fragments was added in a 1.8-mL microfuge tube. Hydrolase assay buffer (1.2 mL) as added to the hair followed by the addition of the perhydrolase enzymes to the solution. The enzymes were allowed to bind the hair for 30 min with gentle agitation (24 rpm) on an Adams Nutator (model 1105, Becton Dickinson, Franklin Lakes, N.J.). No enzyme controls, with hair and without hair, were included in the binding experiment to account for non-enzymatic hydrolysis of the pNPA hydrolase reagent. After the binding step, a 1.0-mL aliquot of the binding buffer was transferred to a new tube to quantitate the amount of unbound enzyme. Additional binding buffer was removed and the hair fragments were washed 4 times with 1 mL of 1% TWEEN®-20 in hydrolase buffer, followed by 2 washes with 1 mL each in hydrolase buffer. The hair fragments were then resuspended in 1 mL of hydrolase assay and the hydrolase activity that remained bound to the hair was measured. The C277S (“PAH”) variant of Thermotoga maritima perhydrolase (SEQ ID NO: 293) was used as a control for an un-targeted perhydrolase.

[3] = Single fiber tensile strength and bleaching start after two-step enzymatic application; details: two-step with buffer rinse
Procedure: Hair samples were cut into pieces 4-inches in length. The denier number (liner mass density) of each hair fiber was measured by Textechno Vibromat Instrument (Textechno Herbert Stein GmbH & Co. KG; Germany). The hair fibers were tested according to ASTM D 3822-01 (“Tensile Properties of Single Textile Fibers”; ASTM International, West Conshohocken, Pa., 2001), on an Instron testing system (Instron Model 1122 Tester; Instron, Mass.) at about 70° F. (approximately 21° C.) and 65% relative humidity. The treated area of the hair sample was placed in the middle of the gauge and both ends were gripped on the test heads. Both fiber ends were attached on a piece of tape, respectively, for easy handling and gripping on the test heads. The test used 2-inch (5.1 cm) gauge length, […], and 1.2 inch/min (3 cm/min) pulling rate. The force-strain curve of the fiber was recorded during the test. The tenacity at maximum (gf/den) was calculated by dividing maximum force (gf) by denier number (den). Note that (gf/den)/11.33=Newtons/tex (N/tex).
In a two-step application, the hair strands are first treated with perhydrolase solutions to allow the enzyme to bind hair. The hair strands are then dried or rinsed with buffer and dried. The rinse step is intended to remove excess unbound enzyme from the hair. The hair strands are soaked in triacetin and H2O2 solutions. The application is repeated for multiple times.
One experiment was carried out with C277S-HC263 and untargeted T. maritima variant C277S using the following protocol: • 1. Enzyme solutions comprising 0.5 mg/mL enzyme in 50 mM phosphate buffer (pH 8) were made with or without 10 wt % urea. • 2. Seven (7) hair strands were soaked in 0.2 mL of an enzyme solution for 10 min and then dried under N2 without prior rinsing. • 3. The hair strands were then soaked in 0.2 mL of a pH 8 solution containing 100-mM triacetin and 250-mM H2O2 for 15 min, dried, then rinsed with DI water and then dried again. • 4. Steps 2-3 were repeated up to 15 times.
Another experiment was carried out with C277S-HC263 (SEQ ID NO: 288), CPAH-HC263 (SEQ ID NO: 294), CPAH-HC1010 (SEQ ID NO: 295) and untargeted C277S using the following protocol: • 1. Enzyme solutions comprising 1.0 mg/mL enzyme in 50 mM phosphate buffer (pH 6) were prepared. For solutions containing two enzymes, the concentration of each enzyme was approximately 0.5 mg/mL. • 2. Seven (7) hair strands were soaked in 0.2 mL of an enzyme solution for 10 min, rinsed with 50 mM phosphate buffer (pH 6), and then dried under N2. • 3. The dried hair strands were then soaked into 0.2 mL of 50 mM phosphate buffer solution (pH 8) comprising 100 mM triacetin and 250 mM H2O2 for 15 min, dried, then rinsed with DI water and then dried again. • 4.

[4] = pH 6.0, binding 1 min, at 10 minutes

B1: SEQ ID NO: 314: untargeted S54V variant of the aryl esterase from Mycobacterium smegmatis (protein, listed as Mycobacterium smegmatis)
chain: MAKRILCFGDSLTWGWVPVEDGAPTERFAPDVRWTGVLAQQLGADFEVIEEGLVARTTNIDDPTDPRLNGASYLPSCLATHLPLDLVIIMLGTNDTKAYFRRTPLDIALGMSVLVTQVLTSAGGVGTTYPAPKVLVVSPPPLAPMPHPWFQLIFEGGEQKTTELARVYSALASFMKVPFFDAGSVISTDGVDGIHFTEANNRDLGVALAEQVRSLL
OD 405nm [1, 4]: 0.003
Peracetic acid [1, 4]: 2.60 ppm

B2: SEQ ID NO: 341: C277S variant of Thermotoga maritima perhydrolase fused to hair binding domain HC263KtoR via a flexible linker (protein)
chain: MAFFDLPLEELKKYRPERYEEKDFDEFWEETLAESEKFPLDPVFERMESHLKTVEAYDVTFSGYRGQRIKGWLLVPKLEEEKLPCVVQYIGYNGGRGFPHDWLFWPSMGYICFVMDTRGQGSGWLKGDTPDYPEGPVDPQYPGFMTRGILDPRTYYYRRVFTDAVRAVEAAASFPQVDQERIVIAGGSQGGGIALAVSALSKKAKALLCDVPFLCHFRRAVQLVDTHPYAEITNFLKTHRDKEEIVFRTLSYFDGVNFAARAKIPALFSVGLMDNISPPSTVFAAYNYYAGPKEIRIYPYNNHEGGGSFQAVEQVKFLKKLFEKGGPGSGGAGSPGSAGGPGSPSAQSQLPDRHSGLHERAPQRYGPEPEPEPEPIPEPPREAPVVIERPRPRPRPRPRPPAHDHRNQRETHQRHAAGSGGGGSPHHHHHH
ppm PAA ([1]; 5% PEG-80 sorbitan laurate pH 6.0, binding 10 min, PAA at 10 minutes): 958 ppm

Activity in the first TWEEN®-20 wash ([2]; hydrolase activity, 1% TWEEN®-20): 20%
Activity retained on hair after 4 TWEEN® 20 washes ([2]; hydrolase activity, 4 washes 1% TWEEN®-20 and 2 buffer washes): 41%
Activity unbound ([2]; hydrolase activity, ~20 mg hair, binding 30 min): 20%
B3: C277S-HC1010: C277S variant of Thermotoga maritima perhydrolase fused via a flexible linker to hair-binding domain HC1010 (protein)
chain: MAFFDLPLEELKKYRPERYEEKDFDEFWEETLAESEKFPLDPVFERMESHLKTVEAYDVTFSGYRGQRIKGWLLVPKLEEEKLPCVVQYIGYNGGRGFPHDWLFWPSMGYICFVMDTRGQGSGWLKGDTPDYPEGPVDPQYPGFMTRGILDPRTYYYRRVFTDAVRAVEAAASFPQVDQERIVIAGGSQGGGIALAVSALSKKAKALLCDVPFLCHFRRAVQLVDTHPYAEITNFLKTHRDKEEIVFRTLSYFDGVNFAARAKIPALFSVGLMDNISPPSTVFAAYNYYAGPKEIRIYPYNNHEGGGSFQAVEQVKFLKKLFEKGGPGSGGAGSPGSAGGPGSAQSQLPDKHSGLHERAPQRYGSGTAEIQSSKNPNPHPQRSWTNGSGHNHMQERYTDPQHSPSVNGLGSGHDHKNQKETHQRHAASSHHHHHH
100% activity (hydrolase activity added to the tube) ([2]; tube containing ~20 mg of hair, not subjected to washes): 125 µmol/min

B4: CPAH-HC263: fusion peptide C277S-HC263 further comprising a D128G substitution (protein)
chain: MAFFDLPLEELKKYRPERYEEKDFDEFWEETLAESEKFPLDPVFERMESHLKTVEAYDVTFSGYRGQRIKGWLLVPKLEEEKLPCVVQYIGYNGGRGFPHDWLFWPSMGYICFVMDTRGQGSGWLKGGTPDYPEGPVDPQYPGFMTRGILDPRTYYYRRVFTDAVRAVEAAASFPQVDQERIVIAGGSQGGGIALAVSALSKKAKALLCDVPFLCHFRRAVQLVDTHPYAEITNFLKTHRDKEEIVFRTLSYFDGVNFAARAKIPALFSVGLMDNISPPSTVFAAYNYYAGPKEIRIYPYNNHEGGGSFQAVEQVKFLKKLFEKGGPGSGGAGSPGSAGGPGSPSAQSQLPDKHSGLHERAPQRYGPEPEPEPEPIPEPPKEAPVVIEKPKPKPKPKPKPPAHDHKNQKETHQRHAAGSGGGGSPHHHHHH
Bleaching Start ([3]; 1.0 mg/mL enzyme pH 6): 9th
Tenacity @ max ([3]; 1.0 mg/mL enzyme pH 6, 100 mM triacetin, 250 mM H2O2, up to 13 repeats): 0.6 gf/den
